Source: the nanobody polyreactivity screen of Harvey et al. (2022)

Assay: yeast display, Sf9 membrane polyspecificity reagent, FACS + sequencing; frameworks hold sequencing errors
Procedure, shortened: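 Sorting gates, low and high (top ~1%), were placed on anti-HA fluorescence to track expression and on streptavidin fluorescence to track reagent binding. A clone's polyreactivity label is taken from the gate it came out of. The reagent was 10% biotinylated, detergent-solubilized Sf9 membrane, applied for 1 hour at 4 °C to galactose-induced yeast display cells.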

Sequence: QVQLVESGGGLVQAGGSLRLSCAASGRIFNLYAMGWYRQAPGKERELVAAINWSGDRTYYADSVKGRFTISRDNAKNTVYLQMYSLKPEDTAVYYCNADGLEIERYAYWYVFLGYDYWGQGTQVTVSS
- polyreactivity (PSR sort gate): low polyreactivity

Sequence: QVQLVESGGGLVQAGGSLRLSCAASGSTLGRYALGWYRQAPGKERELVASITWSDDSTYYADSVKGRFTISRDNAKNTVYLQMNSLKPEDTAVYYCAAAGNLYTYRFYYWGQGTQVTVSS
- polyreactivity (PSR sort gate): low polyreactivity

Sequence: QVQLVESGGGLVQAGGSLRLSCAASGRIFQYNAMGWYRQAPGKERELVAAITGGGSTYYADSVKGRFTISRDNAKNTVYLQMNSLKPEDTAVYYCNKAWSCSWLLTYGYWGQGTQVTVSS
- polyreactivity (PSR sort gate): high polyreactivity

Sequence: QVQLVESGGGLVQAGGSLRLSCAASGFTIGSNAMGWYRPAPGKEWELVAAISYTCSTYYAESVKGRFTISRDNAKNTVYLQKNSLKPEDTAVYYGNAESDTPSYDDWGQGTQVTVSS
- polyreactivity (PSR sort gate): low polyreactivity

Sequence: QVQLVESGGGLVQAGGSLRLSCAASGRIFDAKVMGWYRQAPGKERELVAAISASAGSTSYADSVKGRFTISRDNAKNTVYLQMNSLKPEDTSVYYCAADPYQLWHYYYFGMDYWGQGTQVTVSS
- polyreactivity (PSR sort gate): low polyreactivity

Sequence: QVQLVESGGGLVQAGGSLRLSCAASGSIFVTNAMGWYRQAPGKERELVAAISWSGDNTYYADSVKGRFTISRDNAKNTFYLQMNSLIPEDTAVYYCSTDVWYSYDYYYGDWGYEYWGQGTQVTVSS
- polyreactivity (PSR sort gate): high polyreactivity

Sequence: QVQLVESGGGLVQAGGSLRLSCAASGFIFYWYAMGWYRQAPWKEREFVAAISSSGGNTSYADSVKGRFTISRDNAKNTVYLQMNSLKPEVTAVYYCAATSRAFYRSLYYYWGQGTQVTVSS
- polyreactivity (PSR sort gate): low polyreactivity

Sequence: QVQLVESGGGLVQAGGSLRLSCAASGFIIPGYAMGWYRQAPGKEREFVAAISRSGGSTYYADSVKGRFTISRDNAKNTVYLQMNSLKPEDSAVYYCATRARGYTGYDYWGQGTQVTVSS
- polyreactivity (PSR sort gate): high polyreactivity

Sequence: QVQLVESRGALVQAGGSLRLSCAATGSSFNRYAMRWYRQAPRKERELVAAISSGRTTNYADSVKGRFTISRDNAKNTVYLQMNSLKPEDTAVYYCNRKFRYSSHTNYYYWGQGTQVTVSS
- polyreactivity (PSR sort gate): high polyreactivity

Sequence: QVQLVESGGGLVQAGGSLRLSCAASGRIFGYYAMGWYRQAPGKERELVAAISTRGTSTYYADSVKGRFTISRDNAKNTVYLQMNSLKPEDTAVYYCARGFPPYRGTHMNYWGQGTQVTVSS
- polyreactivity (PSR sort gate): high polyreactivity

Sequence: QVQLVESGGGLVQAGGSLRLSCAASGRTFIGYAMGWYRQAPGKERELVAAISSRGGRTYYADSVKGRFTISRDNAKNTVYLQMNSLKPEDTAVYYCAAGRVKHSGYDYWGQGTQVTVSS
- polyreactivity (PSR sort gate): high polyreactivity

Sequence: QVQLVESGGGLVQAGGSLRLSCAASGSIFPKYAMGWDRQAPGKERELVATITWSGSSTYYADSVKGRFTISRDNAKNTVYLQMNSLKPEDTAVYYCAATGWSSFYYRFDYWGQGTQVTVSS
- polyreactivity (PSR sort gate): low polyreactivity

Sequence: KVQLEESGGGLVQSGGILRLSCAASGSTLWSNTMGWYRQEQGKERELVDAISSGGGSTYADSVKGRFTISRDNAKNTVYLQMNSLKPEDTAVFYCAASAYYYRHSSWHRSDYWGQGTQVTVSS
- polyreactivity (PSR sort gate): high polyreactivity

Sequence: QVQLVESGGGVVQAGGSLRLSCAASGTTFSWYAMGGYRQAPGKERVLVAAISSGGSTNYADSVKGRFTISRDNAKNTVYLQMNSLKPEDTAVYYCAAVWSRYLISYSTGWWFEYWGQGTQVTVSS
- polyreactivity (PSR sort gate): low polyreactivity

Sequence: QVQLVESGGGLVQAGGSLRLSCAASGSIFQRYTMGWYRQAPGKERELVARISGRGGSTYYADSVKGRFTISRDNAKNTVYLQMNSMKPEDTAVYYCAADTGRYLDSNYWGQGTQVTVSS
- polyreactivity (PSR sort gate): high polyreactivity

Sequence: QVQLVESGGGLVQAGGSLRLSCAASGGTFSQYAMGWYRQAPGKERELVATISYSGTSTYYADSVKGRFTISRDNEKNTVYLHMNSLKPEDTAVYDCNIRWRWYRSDYYSWGQGTQVTVSS
- polyreactivity (PSR sort gate): high polyreactivity

Sequence: QVQLVESGGGLVQAGGSLRLSCAASGIILWRNAMGWYRQAPGKDRELVAAITSSGGRTYYADSVKGRFTISRDNAKNTVYLQMNSLKPEDTAVYYCSAYGYSIGPYDYWGQGTQVTVSS
- polyreactivity (PSR sort gate): high polyreactivity

Sequence: QVHLVESGGGLVQAGGSLRLTCAASGSTFDINAMRWYRQAPGKERELVASITFSGGSTYYADSVKGRFTISRDNAKNTVYLQMNSLKPEDTAVYYCAADSSGEYPGGYWGQGTQVTVSS
- polyreactivity (PSR sort gate): low polyreactivity

Sequence: QVQLVETGGGIVQAGGSLRLSCASSGRTFNKYAMGRYRKAPGKERELVAAINYSGGRTDYADSVKGRFTISRDNAKNTVYLQMNSLKPDDTAVYYCAASPTFFVWQGYNYWGQGTQVTVSS
- polyreactivity (PSR sort gate): low polyreactivity

Sequence: QVQLVESGGGLVQAGGSLRLSCAASGRTFRIYAEGWYRQPPGKERELVARITWSGGRTYYADSVKGRFTISRDNAQNTVYLQMNSLKPEDTAVYYCNAGGSWEFDYWGQGTQVTVSS
- polyreactivity (PSR sort gate): low polyreactivity

Sequence: QVQLVESGGGLVQAGGSLRLSCAASGRTFVGNAMGWYRQAPGKERELVATITRRGGSTYYADSVKGRFTISRDNAKNTVYLQMNSLKPEDTAVYYCSAGSQPGRKYYYWGQGTQVTVSS
- polyreactivity (PSR sort gate): high polyreactivity

Sequence: QVQLVESGGGLVQAGGSLRLSCAASGRTLDKYAIGWYRQAPGKERELVAAITSGGTTKYADSVKGRFTISRDNAKNTVYLQMNSLKPEVTAVYYCAKDLEGNPHFSYGIDFDYWGQGTQVTVSS
- polyreactivity (PSR sort gate): low polyreactivity

Sequence: QVQLVESGGGLVQAGGSLRLSCAASGIIFYRYAMGWYRQAPGKERELVAAITWRGGSTYYADSVKGRFTISRDNAMNTVYLQMNSLKPEDTAVYYCAARRRATYELDYWGQGTQVNVSS
- polyreactivity (PSR sort gate): high polyreactivity

Sequence: QVQLVESGGGLVQAGGSLRLSCAASGRIFYPNVMGWYRQAPGKERELVAAITWSSGSTYYADSVKGRFTISRDNAKNTVYLQMNSLKPEDTAVYYCAAGLRWHRKFYYWGQGTQVTVSS
- polyreactivity (PSR sort gate): high polyreactivity

Sequence: QVQLVESGGGLVQAGGSLRLSCAASGRTFYGYAMGWYRQAPGKEREFVAAINRSGGTTYYADSVKGRFTISRDNAKNTVYLQMNSLKPEDTAVYYCAADYSRIRRWPGYYAYDYWGQGTQVTVSS
- polyreactivity (PSR sort gate): high polyreactivity

Sequence: QVQLVESGGGLVQAGGSLSLSCAASGRIFYKYAMGWYRQAPGKESELVAAINTSGGRTYYADSVKGRFTISRDNAKNTVYLQMNSLKPEDTAVYYCKAVGSAYTAYDYWGQGTQVTVSS
- polyreactivity (PSR sort gate): high polyreactivity

Sequence: QVQLVESGGGLFQAGGSLRLSCAASGGIFYGNVMGWYRQAPGKERELVADITSVGSTYYADSVKGRFTISRDNAKNTVYLQMNSLIPEDTAVYYCAAEPDHVADSHSGYDYWGQGTQVTVSS
- polyreactivity (PSR sort gate): low polyreactivity

Sequence: QVQLVESGGGLVQAGGSLRLSCAASGRIFPSNAMGWYRQAPGKERELVAAISFSGGSTYYADSVKGRFTISRDNAKNTVYLQMNSLKPEDTAVYYCAKSGVVDWGQGTQVTVSS
- polyreactivity (PSR sort gate): low polyreactivity

Sequence: QVQLVESGGGLVQAGGSLRLTCAASGFTFHVNTMGWYRQAPGKEMELVAAISWSGGSTYYADSVKGRFTISRDTAKKTVYLQMNSLNPEDTAVYYCNAVPVSYRGVYWGQGTQVTVSS
- polyreactivity (PSR sort gate): low polyreactivity

Sequence: QVQLVESGGGLLQAGGSLRLSCAASGRTFYSNAMGWYRQAPGKERELVATISSGGSTNYADSVKGRFTISRDNAKNTVYLQMNSLKPEDTAVYYCAKRTHQFGVSRSYNTYYYWGQGTQVTVSS
- polyreactivity (PSR sort gate): low polyreactivity

Sequence: QVQLVESGGGLVQAGGSLRLSCAASGFTFRTYAMGWYRQAPGKERELVAAISRSGGSTDYADSVKGRFTISRDTAKNTVYLQMNSLKPEHTAVYYCNAVRRAEYDYWGQGTQVTVSS
- polyreactivity (PSR sort gate): high polyreactivity

Sequence: QVQLVESGGGLVQAGGSLRLTCAASGRTFYYYAMGWYRQAPGKESELVAAINTRGVSTYYADSVKGRFTISRDNAKNTVYLQMNSLKPEDTAVYYCNKGFSYGRDYWGQGTQVTVSS
- polyreactivity (PSR sort gate): high polyreactivity

Sequence: QVQLVESGGGLVQAGGSLRLISAASGRIFDLYTMGWYRQAPGKERELVAAIRWSHGSTYYADSVKGRFTISRDNAKNTVYLQMNSLKPEDTAVYYCAADTRTSYYNDDYDYWGQGTQVTVSS
- polyreactivity (PSR sort gate): low polyreactivity

Sequence: QVQLVESGGGLVQAGGSLRLSSADSGRTFWDNTMGWYRQAPGKERELVAAISGGDSTYYADSVKGRFTISRDNAKNTVYLQMNSLKPEDTAVYYCAAAYATPTLYYYWGQGTQVTVSS
- polyreactivity (PSR sort gate): low polyreactivity

Sequence: QVQLVESVGGLVQAGGSLRLSCAASGSTFGYNAMGWYRKAPGKERELVAGITSSGGSTYYADSVKGRFTISRDNAKNTVYLQMNSLKPEDTAVYYCAKAFYRHSSPNNSEYWGQGTQVTVSS
- polyreactivity (PSR sort gate): low polyreactivity

Sequence: QVQLVESGGGLVQAGGSLRLSWAASGRLFDGYAMGWYRQAPGTERELVATISSSGGATYYADSVKGRFTISRDNAKNTVYLQMNSLKPEDTAVYYCATAGSVSHWYSYFAFWERDYWGQGTQVTVSS
- polyreactivity (PSR sort gate): low polyreactivity

Sequence: QDQLVESGVGLDQAGGSLRLSCAASGRIFRGSAMGWFSQAPGKEREFVAAITKNGGSTYYADSVNARFTISRDNANNTVYVQMNSLKPEDTAVYDCAVRAWDPDTGNSDYWGQGTQGTVSS
- polyreactivity (PSR sort gate): low polyreactivity

Sequence: QVQLVESGGGLVQAGGSLRLSCAASGLIFPLYAMGWYRHAPGKERELVAAITSSGGSTYYADSVKGRFTISRDNAKNTVYLQMNSLKPEDTAVYYCAADYSVYWLDYGYWGQGTQVTVSS
- polyreactivity (PSR sort gate): low polyreactivity

Sequence: QVQLVESGGGLVQAGGSLRLSCAASGRIFFRYAMGWYRQAPGKERELVAAISYSGGSTYYADSVKGRFTISRDNAKNTVYLQMNSLKPDDTAVYYCATGPVYEYDYWGQGTQVTVSS
- polyreactivity (PSR sort gate): low polyreactivity

Sequence: QVQLVESGGGLVQAGGSLRLSCAASGFIFAVYGMGWYTQAPGKQRELVAAISTGDSTKYADSVKGRFTISRDNAKNTVYLQMNSLNPEDTAVYYCAADGPYEGYDYWGQGTQVTVSS
- polyreactivity (PSR sort gate): high polyreactivity

Sequence: QVQLVESGGGLVQAGGSLRLTCAASGLTFAGYAMGWYRQAPGKERELVAYITTSGGSTHYADSVKGRFTISRDNAKNTVYLQMNSLKPEDTAVYYCAAEGYPGDNELIGAFDYWGQGTQVTVSS
- polyreactivity (PSR sort gate): low polyreactivity

Sequence: QVQLVESGGGLVQAGGSDRLSCAASGNTFYPNAMGWYRPAPGKERELVAAITTSGGTTYYADSVKGRFTISRDNAKNTVYLQMNSLKPEDTAVYYCAAYWSRDKYDYWGQGTQVTVSS
- polyreactivity (PSR sort gate): low polyreactivity

Sequence: QVQLVESGGGLVQAGGSLRLSCAASGSIFIGNTMGWYRPAPGNERELVATIRRSGSRTYYADSVKGRFTISRDNAKNTVYLQMNSLKPEDTAVYYCAADRLRTSGYKTIYDYWGQGTQVTVSS
- polyreactivity (PSR sort gate): low polyreactivity
